Source: the RNAGym collection of RNA variant scans (doi:10.1093/molbev/msab373)

B1: Azoarcus group I ribozyme (parent)
chain: GUGCCUUGCGCCGGGAAACCACGCAAGGGAUGGUGUCAAAUUCGGCGAAACCUAAGCGCCCGCCCGGGCGUAUGGCAACGCCGAGCCAAGCUUCGGCGCCUGCGCCGAUGAAGGUGUAGAGACUAGACGGCACCCACCUAAGGCAAACGCUAUGGUGAAGGCAUAGUCCAGGGAGUGGCGAAAGUCACACAAACCGG

Variants of: B1
Test: reverse-splicing fitness (ratio to wild type); higher = more active; in vitro selection; Mg2+ level not given
How it was run: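 An in vitro group I ribozyme library with randomized positions was T7-transcribed and gel-purified. In triplicate, 10 pmol RNA in EPPS pH 7.5 was reacted with 50 pmoles of a 30-nt RNA substrate for 1 h at 37 °C across several added MgCl2 levels (1–48 mM), then stopped with EDTA. Products were reverse transcribed from a substrate-complementary primer, PCR-amplified and sequenced (HiSeq 4000). Fitness is a variant's read proportion after selection over that before, normalised to wild type.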

First: C82U A111C A120U C169A U176G
Second: C82U A111C A145G C150G C169A U176G
The reverse-splicing fitness of the first is lower: 0.00185 for the first, 0.0072 for the second.

First: C82U A111C A145G C150G C169A U176A
Second: C82U A111C A145G C150G C169A U176C
The reverse-splicing fitness of the first is higher: 0.0123 for the first, 0.0111 for the second.

Going from C82U A111C A120U A145G C150G C169A U176A to C82U A111C A120U A145G C150G C169A U176G, the reverse-splicing fitness falls from 0.0114 to 0.00495.

First: C82U A111C A120U A145G C150G C169A U176C
Second: C82U A111C A145C U176G
The reverse-splicing fitness of the first is lower: 0.00788 for the first, 0.0186 for the second.

Going from C82U A111C A145C U176C to C82U A111C A145C U176A, the reverse-splicing fitness falls from 0.0915 to 0.0676.

Compared with C82U A111C A145U C150A C169G, C82U A111C A145U C150A C169A is higher in reverse-splicing fitness: 0.00682 for the first, 0.00884 for the second.

First: C82U A111C A145U C150A C169U
Second: C82U A111C A145G C150A C169G
The reverse-splicing fitness of the first is higher: 0.0103 for the first, 0.00813 for the second.

Going from C82U A111C A145G C150A C169U to C82U A111C A145G C150A C169A, the reverse-splicing fitness falls from 0.0103 to 0.0093.

Compared with C82U A111C A145C C150A C169U, C82U A111C A145C C150A C169A is lower in reverse-splicing fitness: 0.00887 for the first, 0.00786 for the second.

First: C82U A111C A145C C150A C169G
Second: C82U A111C A145C C169U U176C
The reverse-splicing fitness of the first is lower: 0.00773 for the first, 0.0113 for the second.

Going from C82U A111C A145C C169U U176A to C82U A111C A145C C169U U176G, the reverse-splicing fitness falls from 0.0157 to 0.00632.

First: C82U A111C A120U A145U
Second: C82U A111C A120U A145U C169U
The reverse-splicing fitness of the first is higher: 0.0254 for the first, 0.00366 for the second.

Compared with C82U A111C A120U A145U C169A, C82U A111C A120U A145U C169G is higher in reverse-splicing fitness: 0.00238 for the first, 0.00369 for the second.

Going from C82U A111C A120U A145U C150A C169A U176C to C82U A111C A120U A145U C150A C169A U176A, the reverse-splicing fitness falls from 0.00253 to 0.00217.

Going from C82U A111C A120U A145U C150A C169A U176G to C82U A111C A120U A145G C150U C169U U176C, the reverse-splicing fitness rises from 0.00255 to 0.00415.

First: C82U A111C A120U A145G C150U C169U U176A
Second: C82U A111C A120U A145G C150U C169U U176G
The reverse-splicing fitness of the first is higher: 0.00522 for the first, 0.00271 for the second.

Going from C82U A111C A145U C150G C169A U176G to C82U A111C A145U C150G C169A U176A, the reverse-splicing fitness rises from 0.00824 to 0.00909.

Going from C82U A111C A145U C150G C169A U176C to C82U A111C A145C C150A C169A U176A, the reverse-splicing fitness rises from 0.0103 to 0.0134.

Compared with C82U A111C A145C C150A C169A U176G, C82U A111C A145C C150A C169A U176C is higher in reverse-splicing fitness: 0.00794 for the first, 0.00874 for the second.

Compared with C82U A111C A120U C169G U176A, C82U A111C A120U C169G U176C is higher in reverse-splicing fitness: 0.0032 for the first, 0.0039 for the second.

Going from C82U A111C A120U C169G U176G to C82U A111C A145C C150G, the reverse-splicing fitness rises from 0.00177 to 0.024.

Going from C82U A111C A145C C150U to C82U A111C A145C C150A, the reverse-splicing fitness falls from 0.0562 to 0.0154.

First: C82U A111C A120U A145G U176G
Second: C82U A111C A120U A145G U176C
The reverse-splicing fitness of the first is lower: 0.00307 for the first, 0.0113 for the second.

Compared with C82U A111C A120U A145G U176A, C82U A111C A145G C150G U176G is lower in reverse-splicing fitness: 0.00722 for the first, 0.00671 for the second.

Compared with C82U A111C A145G C150G U176C, C82U A111C A145G C150G U176A is lower in reverse-splicing fitness: 0.0166 for the first, 0.0105 for the second.

Compared with C82U A111C A120U A145U C150A U176G, C82U A111C A120U A145U C150A U176A is higher in reverse-splicing fitness: 0.00247 for the first, 0.00357 for the second.

Compared with C82U A111C A120U A145U C150A U176C, C82U A111C A145G C150A C169A U176A is higher in reverse-splicing fitness: 0.00465 for the first, 0.0149 for the second.

Compared with C82U A111C A145G C150A C169A U176G, C82U A111C A145G C150A C169A U176C is higher in reverse-splicing fitness: 0.00838 for the first, 0.0197 for the second.

Compared with C82U A111C A145C C150G C169U, C82U A111C A145C C150G C169G is lower in reverse-splicing fitness: 0.00936 for the first, 0.00696 for the second.

First: C82U A111C A145C C150G C169A
Second: C82U A111C A120U A145U C150G C169A U176G
The reverse-splicing fitness of the first is higher: 0.00742 for the first, 0.00233 for the second.

First: C82U A111C A120U A145U C150G C169A U176C
Second: C82U A111C A120U A145U C150G C169A U176A
The reverse-splicing fitness of the first is lower: 0.00322 for the first, 0.00336 for the second.

Compared with C82U A111C A120U A145U C169U U176A, C82U A111C A120U A145U C169U U176G is lower in reverse-splicing fitness: 0.00256 for the first, 0.00166 for the second.

Compared with C82U A111C A120U A145U C169U U176C, C82U A111C A120U A145U C150U C169A U176C is higher in reverse-splicing fitness: 0.00255 for the first, 0.00282 for the second.

Compared with C82U A111C A120U A145U C150U C169A U176G, C82U A111C A120U A145U C150U C169A U176A is higher in reverse-splicing fitness: 0.00229 for the first, 0.00306 for the second.

Going from C82U A111C A145G C150U U176C to C82U A111C A145G C150U U176A, the reverse-splicing fitness falls from 0.085 to 0.0576.

Compared with C82U A111C A145G C150U U176G, C82U A111C A120U C169U U176A is lower in reverse-splicing fitness: 0.0161 for the first, 0.0057 for the second.

First: C82U A111C A120U C169U U176C
Second: C82U A111C A120U C169U U176G
The reverse-splicing fitness of the first is higher: 0.00419 for the first, 0.00178 for the second.

Going from C82U A111C A120U A145G C150G U176C to C82U A111C A120U A145G C150G U176A, the reverse-splicing fitness falls from 0.00806 to 0.00648.

Going from C82U A111C A120U A145G C150G U176G to C82U A111C A120U A145G C150A U176C, the reverse-splicing fitness rises from 0.00395 to 0.00717.

Going from C82U A111C A120U A145G C150A U176A to C82U A111C A120U A145G C150A U176G, the reverse-splicing fitness falls from 0.00653 to 0.00319.

Compared with C82U A111C A145C C169U, C82U A111C A145C C169G is lower in reverse-splicing fitness: 0.0113 for the first, 0.00983 for the second.

For C82U A111C A145C C169A, the reverse-splicing fitness was 0.00714.
